Assay results from US20200024330A1.

How the values were obtained:
Assay in all cases: cell-based or functional assay
[1] = biological target: HIV-1 Env of isolate NL43 (clade B) (HIV-1)
[2] = biological target: HIV-1 Env of isolate MGRM-AG-005 (clade AG) (HIV-1)
[3] = biological target: HIV-1 Env of isolate 93UG077 (clade A) (HIV-1)
[4] = biological target: HIV-1 MGRM-D-001 Env (clade D pseudovirus) (HIV-1)
[5] = biological target: HIV-1 MGRM-C-026 Env (clade C pseudovirus) (HIV-1)
[6] = biological target: HIV-1 APV13 Env (clade B pseudovirus) (HIV-1)
[7] = biological target: HIV-1 92RW020 Env (clade A pseudovirus) (HIV-1)
[8] = biological target: HIV-1 JRCSF Env (clade B pseudovirus) (HIV-1) (UniProt P20871)
[9] = biological target: HIV-1 92TH021 Env (clade AE pseudovirus) (HIV-1)
[10] = biological target: HIV-1 93UG077 Env (clade A pseudovirus) (HIV-1)
[11] = biological target: HIV-1 MGRM-D-018 Env (clade D pseudovirus) (HIV-1)
[12] = biological target: HIV-1 MGRM-C-027 Env (clade C pseudovirus) (HIV-1)
[13] = biological target: HIV-1 92BR020 Env (clade B pseudovirus) (HIV-1)
[14] = biological target: HIV-1 MGRM-AG-005 Env (pseudovirus) (HIV-1)
[15] = biological target: HIV-1 CMU02 Env (pseudovirus) (HIV-1)
[16] = biological target: HIV-1 92UG024 Env (pseudovirus) (HIV-1)
[17] = biological target: HIV-1 envelope glycoprotein (Env) of isolate APV_13, on pseudovirus (HIV-1)
[18] = biological target: HIV-1 envelope glycoprotein (Env) of isolate MGRM-Chronic-B-011, on pseudovirus (HIV-1)
[19] = biological target: HIV-1 Env of isolate MGRM-F1-022 (clade F), on pseudovirus (HIV-1)
[20] = biological target: HIV-1 Env of isolate ZM214 (HIV-1)
[21] = biological target: HIV-1 Env of isolate DU422 (HIV-1)
[22] = biological target: MuLV envelope protein (control pseudovirus) (MuLV)
[23] = biological target: HIV-1 Env of isolate 92RW009 (clade A), on pseudovirus (HIV-1)
[24] = biological target: HIV-1 Env of isolate MG RM-A-005 (pseudovirus) (HIV-1)
[25] = biological target: HIV-1 Env of isolate 92UG114 (subtype D), on pseudovirus (HIV-1)
[26] = biological target: HIV-1 Env of isolate MG RM-A-011 (pseudovirus) (HIV-1)
[27] = biological target: HIV-1 Env of isolate 98CN006 (subtype CRF08 BC), on pseudovirus (HIV-1)
[28] = biological target: HIV-1 Env of isolate 92UG031 (pseudovirus) (HIV-1)
[29] = biological target: HIV-1 Env of isolate 93UG077 (pseudovirus) (HIV-1)
[30] = biological target: HIV-1 Env of isolate MG RM-A-010 (pseudovirus) (HIV-1)
[31] = biological target: HIV-1 Env of isolate VLGCA1 (pseudovirus) (HIV-1)
[32] = biological target: HIV-1 Env of isolate 92RW008 (clade A), on pseudovirus (HIV-1)
[33] = biological target: HIV-1 Env of isolate MGRM-D-001 (subtype D), on pseudovirus (HIV-1)
[34] = biological target: HIV-1 Env of isolate APV_13 (HIV-1)
[35] = biological target: HIV-1 Env of isolate MG RM-A-013 (pseudovirus) (HIV-1)
[36] = biological target: HIV-1 Env of isolate 92WR024 (pseudovirus) (HIV-1)

1443_C16 (PG16) (TCN-116) (antibody), sequence (VH): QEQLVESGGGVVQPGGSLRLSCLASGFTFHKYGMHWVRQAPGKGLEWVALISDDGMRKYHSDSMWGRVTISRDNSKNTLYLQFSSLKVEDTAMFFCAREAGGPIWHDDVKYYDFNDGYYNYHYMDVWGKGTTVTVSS
1443_C16 (PG16) (TCN-116) (antibody), sequence (VL): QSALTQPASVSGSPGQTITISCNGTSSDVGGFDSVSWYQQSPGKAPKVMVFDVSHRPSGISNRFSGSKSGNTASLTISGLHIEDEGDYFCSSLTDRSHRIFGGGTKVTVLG

## 5147_N06 (PGT-130) (antibody)
[1]
  neutralization IC50: > 10 µg/mL
  neutralization IC80: > 10 µg/mL
  neutralization IC90: > 10 µg/mL
  neutralization IC95: > 10 µg/mL
[2]
  neutralization IC50: 0.947 µg/mL
  neutralization IC80: > 10 µg/mL
  neutralization IC90: > 10 µg/mL
  neutralization IC95: > 10 µg/mL
[3]
  neutralization IC50: > 10 µg/mL
  neutralization IC80: > 10 µg/mL
  neutralization IC90: > 10 µg/mL
  neutralization IC95: > 10 µg/mL

## 4877_D15 (PGT-122) (antibody)
[4]
  Neutralization by PGT-122, IC50: 0.867 µg/mL
  Neutralization by PGT-122, IC80: 4.48 µg/mL
  Neutralization by PGT-122, IC90: > 10 µg/mL
  Neutralization by PGT-122, IC95: > 10 µg/mL
[5]
  Neutralization by PGT-122, IC50: 0.0089 µg/mL
  Neutralization by PGT-122, IC80: 0.037 µg/mL
  Neutralization by PGT-122, IC90: 0.0849 µg/mL
  Neutralization by PGT-122, IC95: 0.181 µg/mL
[6]
  Neutralization by PGT-122, IC50: 0.992 µg/mL
  Neutralization by PGT-122, IC80: 4.14 µg/mL
  Neutralization by PGT-122, IC90: 8.6 µg/mL
  Neutralization by PGT-122, IC95: > 10 µg/mL
[7]
  Neutralization by PGT-122, IC50: 0.0072 µg/mL
  Neutralization by PGT-122, IC80: 0.0407 µg/mL
  Neutralization by PGT-122, IC90: 0.113 µg/mL
  Neutralization by PGT-122, IC95: 0.289 µg/mL
[8]
  Neutralization by PGT-122, IC50: 0.0727 µg/mL
  Neutralization by PGT-122, IC80: 0.245 µg/mL
  Neutralization by PGT-122, IC90: 0.494 µg/mL
  Neutralization by PGT-122, IC95: 0.926 µg/mL
[9]
  Neutralization by PGT-122, IC50: > 10 µg/mL
  Neutralization by PGT-122, IC80: > 10 µg/mL
  Neutralization by PGT-122, IC90: > 10 µg/mL
  Neutralization by PGT-122, IC95: > 10 µg/mL
[10]
  Neutralization by PGT-122, IC50: 0.191 µg/mL
  Neutralization by PGT-122, IC80: 0.931 µg/mL
  Neutralization by PGT-122, IC90: 2.1 µg/mL
  Neutralization by PGT-122, IC95: 3.88 µg/mL
[11]
  Neutralization by PGT-122, IC50: 0.0115 µg/mL
  Neutralization by PGT-122, IC80: 0.035 µg/mL
  Neutralization by PGT-122, IC90: 0.0674 µg/mL
  Neutralization by PGT-122, IC95: 0.125 µg/mL
[12]
  Neutralization by PGT-122, IC50: 0.0388 µg/mL
  Neutralization by PGT-122, IC80: 0.499 µg/mL
  Neutralization by PGT-122, IC90: > 10 µg/mL
  Neutralization by PGT-122, IC95: > 10 µg/mL
[13]
  Neutralization by PGT-122, IC50: 0.0337 µg/mL
  Neutralization by PGT-122, IC80: 0.0929 µg/mL
  Neutralization by PGT-122, IC90: 0.168 µg/mL
  Neutralization by PGT-122, IC95: 0.289 µg/mL

## 5141_B17 (PGT-126) (antibody)
[14]
  IC50: 1.35 µg/mL
  IC80: > 10 µg/mL
  IC90: > 10 µg/mL
  IC95: > 10 µg/mL
[15]
  IC50: > 10 µg/mL
  IC80: > 10 µg/mL
  IC90: > 10 µg/mL
  IC95: > 10 µg/mL
[16]
  IC50: > 10 µg/mL
  IC80: > 10 µg/mL
  IC90: > 10 µg/mL
  IC95: > 10 µg/mL

## PGV04 (antibody)
[17]
  IC50, pseudovirus neutralization: 1.23 µg/mL
[18]
  IC50, pseudovirus neutralization: 0.497 µg/mL
[19]
  IC50 (µg/mL), single-round pseudovirus neutralization: 0.072 µg/mL

## 1443_C16 (PG16) (TCN-116) (antibody)
[20]
  IC50, pseudovirus neutralization (TZM-bl): > 25 µg/mL
[21]
  IC50, pseudovirus neutralization (TZM-bl): 0.59 µg/mL
[22]
  IC50, pseudovirus neutralization (TZM-bl), control virus: > 25 µg/mL

## VRC01 (antibody)
[23]
  IC50, single-round pseudovirus neutralization: 0.187 µg/mL
[24]
  IC50 (µg/mL), pseudovirus neutralization: 0.095 µg/mL
[25]
  IC50, pseudovirus neutralization: 0.33 µg/mL
[26]
  IC50 (µg/mL), pseudovirus neutralization: 0.273 µg/mL
[27]
  IC50, pseudovirus neutralization: 0.644 µg/mL
[28]
  IC50 (µg/mL), pseudovirus neutralization: 0.469 µg/mL
[29]
  IC50 (µg/mL), pseudovirus neutralization: 0.097 µg/mL
[30]
  IC50 (µg/mL), pseudovirus neutralization: 0.325 µg/mL
[31]
  IC50 (µg/mL), pseudovirus neutralization: 0.163 µg/mL
[32]
  IC50, single-round pseudovirus neutralization: 0.037 µg/mL
[33]
  IC50, pseudovirus neutralization: > 50 µg/mL
[34]
  IC50: 0.657 µg/mL
[35]
  IC50 (µg/mL), pseudovirus neutralization: 0.152 µg/mL
[36]
  IC50 (µg/mL), pseudovirus neutralization: 0.327 µg/mL
